Blank lines part the entries; values can stand above or below the binder they belong to.
How the values were obtained:
[1] = target: T1, SOC1 (SUPPRESSOR OF OVEREXPRESSOR OF CONSTANS 1) transcription factor (Arabidopsis thaliana, UniProt O64645 1-214, 35S-Met label in the pull-down assay (in vitro translated)); assay: BiFC (split EYFP fusions) in Arabidopsis protoplasts
T1 construct: Full-size MADS box transcription factor; In yeast two-hybrid it was fused to GAL4 AD or BD (pGADT7/pGBKT7); In BiFC it was fused to a half of EYFP; In the pull-down it was in vitro translated from pGADT7 and 35S-labeled; also called Arabidopsis SOC1; At2g45660
Experimental: (§1) BiFC assays were carried out as described previously (Hong et al., J. Biol. Chem. 286, 1659-1668, 2011). A full-size SOC1 gene was fused in-frame to the 5′ end of a gene sequence encoding the C-terminal half of EYFP in the pSATN-cEYFP-C1 vector (E3082). Truncated SOC1 gene sequences were fused in-frame to the 5′ end of a gene sequence encoding the N-terminal half of EYFP in the pSATN-nEYFP-C1 vector (E3081). The expression constructs were cotransformed into Arabidopsis protoplasts. Expression of the fusion constructs was monitored by fluorescence microscopy using a Zeiss LSM510 confocal microscope (Carl Zeiss MicroImaging GmbH, Jena, Germany). The BdSOC1 gene constructs were prepared similar to the Arabidopsis SOC1 gene constructs and transiently expressed in Brachypodium protoplasts.

[2] = target: T2, BdSOC1 (Brachypodium distachyon SUPPRESSOR OF OVEREXPRESSOR OF CONSTANS 1) transcription factor (Brachypodium distachyon, 35S-Met label in the pull-down assay (in vitro translated)); assay: BiFC (split YFP fusions) in Brachypodium protoplasts
T2 construct: Fused to an EYFP half in BiFC; In vitro translated and 35S-labeled in the pull-down; also called Bradi1g77020; Brachypodium SOC1
Experimental: (a) in vitro pull-down assays. The BdSOC1 protein was prepared as recombinant BdSOC1-MBP fusion in E. coli cells. The ³⁵S-labeled BdSOC1 polypeptides were prepared by in vitro translation. Part of Coomassie-stained gel is shown (bottom panel). (b) BiFC assays. Partial YFP fusion constructs were transiently expressed in Brachypodium protoplasts. Scale bars=10 μm.
as §1

T1 sequence (O64645 whole entry, the tested form may be a part): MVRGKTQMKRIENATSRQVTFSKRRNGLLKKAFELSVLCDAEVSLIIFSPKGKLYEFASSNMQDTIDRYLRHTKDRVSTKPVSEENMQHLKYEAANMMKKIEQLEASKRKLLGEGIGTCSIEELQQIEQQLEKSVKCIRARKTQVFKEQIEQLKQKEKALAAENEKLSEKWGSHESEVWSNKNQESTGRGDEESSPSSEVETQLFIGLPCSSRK
T2 sequence (chain, as listed by the source limits assumed): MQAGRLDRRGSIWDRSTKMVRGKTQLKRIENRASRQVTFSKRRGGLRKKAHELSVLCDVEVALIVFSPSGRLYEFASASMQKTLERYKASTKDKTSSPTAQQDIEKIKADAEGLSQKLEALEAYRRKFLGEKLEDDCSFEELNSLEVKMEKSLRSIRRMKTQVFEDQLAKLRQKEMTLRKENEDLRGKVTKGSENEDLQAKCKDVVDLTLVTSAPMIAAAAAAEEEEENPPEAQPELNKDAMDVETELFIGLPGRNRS

binding result [1]: binds
B2: S-IK truncated SOC1 form (peptide)
chain: KKAFELSVLCDAEVSLIIFSPKGKLYEFASSNMQDTIDRYLRHTKDRVSTKPVSEENMQHLKYEAANMMKKIEQLEASKRKLLGEGIGTCSIEELQQIEQQLEKSVKCIRARKTQVFKEQIEQLKQKEKALAAENEKLSEK
modifications: 35S-Met label in the pull-down assay (in vitro translated)
notes: It was fused to GAL4 domain or EYFP half in yeast and BiFC assays; also called SOC1 a-siPEP

binding result [2]: binds
B3: BdS-IK truncated BdSOC1 form (peptide)
chain: KAHELSVLCDVEVALIVFSPSGRLYEFASASMQKTLERYKASTKDKTSSPTAQQDIEKIKADAEGLSQKLEALEAYRRKFLGEKLEDDCSFEELNSLEVKMEKSLRSIRRMKTQVFEDQLAKLRQKEMTLRKENEDLRGK
modifications: 35S-Met label in the pull-down assay (in vitro translated)
notes: An artificial start codon was added; also called BdS-MK2 (primer name)

More lines, now with the values behind:

B1: S-K truncated SOC1 form (peptide)
chain: VSEENMQHLKYEAANMMKKIEQLEASKRKLLGEGIGTCSIEELQQIEQQLEKSVKCIRARKTQVFKEQIEQLKQKEKALAAENEKLSEK
modifications: 35S-Met label in the pull-down assay (in vitro translated)
notes: It was fused to GAL4 domain or EYFP half in yeast and BiFC assays; also called S-K form; SOC1 a-siPEP
binding result [1]: binds

B4: BdS-K truncated BdSOC1 form (peptide)
chain: TAQQDIEKIKADAEGLSQKLEALEAYRRKFLGEKLEDDCSFEELNSLEVKMEKSLRSIRRMKTQVFEDQLAKLRQKEMTLRKENEDLRGK
modifications: 35S-Met label in the pull-down assay (in vitro translated)
notes: An artificial start codon was added
binding result [2]: binds

Source: patent US20160138036A1 (SNU R AND DB FOUNDATION, published 2016)
